According to patent US20240317847A1 (Bayer, published 2024):
Like-named read-outs stand apart in the source and are kept apart here.

T1: human IL-11 (human, UniProt P20809 22-199)
T1 sequence: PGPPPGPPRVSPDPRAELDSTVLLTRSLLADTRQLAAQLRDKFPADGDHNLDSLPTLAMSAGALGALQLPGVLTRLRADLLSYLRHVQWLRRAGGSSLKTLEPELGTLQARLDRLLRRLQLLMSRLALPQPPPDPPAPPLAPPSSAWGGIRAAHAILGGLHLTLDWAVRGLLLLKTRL

T2: murine IL-11 (mouse, UniProt P47873 22-199)
T2 sequence: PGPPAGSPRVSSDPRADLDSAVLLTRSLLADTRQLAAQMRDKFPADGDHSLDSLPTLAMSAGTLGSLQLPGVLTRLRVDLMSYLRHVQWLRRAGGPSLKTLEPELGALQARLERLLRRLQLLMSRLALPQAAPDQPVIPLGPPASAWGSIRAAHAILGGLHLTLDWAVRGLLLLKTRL

T3: human IL-11 (human, UniProt P20809 22-199)
T3 sequence: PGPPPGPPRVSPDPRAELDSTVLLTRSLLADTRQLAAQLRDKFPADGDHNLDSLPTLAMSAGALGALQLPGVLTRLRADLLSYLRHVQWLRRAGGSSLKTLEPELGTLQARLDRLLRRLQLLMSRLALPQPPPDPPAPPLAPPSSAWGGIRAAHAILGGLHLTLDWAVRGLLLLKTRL

T4: murine IL-11 (mouse, UniProt P47873 22-199)
T4 sequence: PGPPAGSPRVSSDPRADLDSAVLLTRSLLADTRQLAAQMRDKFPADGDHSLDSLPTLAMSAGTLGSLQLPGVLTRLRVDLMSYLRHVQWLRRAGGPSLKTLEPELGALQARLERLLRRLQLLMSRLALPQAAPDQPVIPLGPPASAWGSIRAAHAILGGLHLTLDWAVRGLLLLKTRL

T5: cynomolgus IL-11 (cynomolgus, UniProt P20808 22-199)
T5 sequence: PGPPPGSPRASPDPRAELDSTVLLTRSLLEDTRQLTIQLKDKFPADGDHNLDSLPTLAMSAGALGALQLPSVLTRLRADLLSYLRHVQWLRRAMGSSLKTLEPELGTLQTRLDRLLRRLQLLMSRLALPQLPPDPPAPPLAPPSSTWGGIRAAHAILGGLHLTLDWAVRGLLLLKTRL

T6: rat IL-11 (rat, UniProt Q99MF5 22-199)
T6 sequence: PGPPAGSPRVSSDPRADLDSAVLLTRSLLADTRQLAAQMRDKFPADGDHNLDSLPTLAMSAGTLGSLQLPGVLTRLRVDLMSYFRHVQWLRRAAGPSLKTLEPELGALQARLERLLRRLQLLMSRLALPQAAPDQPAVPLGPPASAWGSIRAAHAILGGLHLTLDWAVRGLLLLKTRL

B1: TPP-27157 (antibody, V domains shown)
VH: EVQLLESGGGLVQPGGSLRLSCAASGFTFSSYGMHWVRQAPGKGLEWVAVISYDGSYKYYADSVKGRFTISRDNSKNTLYLQMNSLRAEDTAVYYCAAGVPDYWGQGTLVTVSS
VL: QSVLTQPPSASGTPGQRVTISCTGSSSNIGAGYDVHWYQQLPGTAPKLLIYSNNERPSGVPDRFSGSKSGTSASLAISGLRSEDEADYYCAAWDDSLSGPVFGGGTKLTVL
B2: TPP-27158 (antibody, V domains shown)
VH: EVQLLESGGGLVQPGGSLRLSCAASGFTFSSYGMHWVRQAPGKGLEWVAVISYDGSYKYYADSVKGRFTISRDNSKNTLYLQMNSLRAEDTAVYYCAAGVPDYWGQGTLVTVSS
VL: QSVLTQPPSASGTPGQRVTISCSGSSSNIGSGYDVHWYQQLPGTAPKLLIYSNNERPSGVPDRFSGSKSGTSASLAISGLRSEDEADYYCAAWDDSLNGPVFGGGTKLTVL
B3: TPP-27160 (antibody, V domains shown)
VH: EVQLLESGGGLVQPGGSLRLSCAASGFTFSSYGMHWVRQAPGKGLEWVAVISYDGSYKYYADSVKGRFTISRDNSKNTLYLQMNSLRAEDTAVYYCAAGVPDYWGQGTLVTVSS
VL: QSVLTQPPSASGTPGQRVTISCSGSSSNIGSGYDVHWYQQLPGTAPKLLIYDNNERPSGVPDRFSGSKSGTSASLAISGLRSEDEADYYCAAWDDSLSGPVFGGGTKLTVL
B4: TPP-27162 (antibody, V domains shown)
VH: EVQLLESGGGLVQPGGSLRLSCAASGFTFSSYGMHWVRQAPGKGLEWVAVISYDGSYKYYADSVKGRFTISRDNSKNTLYLQMNSLRAEDTAVYYCAAGVPDYWGQGTLVTVSS
VL: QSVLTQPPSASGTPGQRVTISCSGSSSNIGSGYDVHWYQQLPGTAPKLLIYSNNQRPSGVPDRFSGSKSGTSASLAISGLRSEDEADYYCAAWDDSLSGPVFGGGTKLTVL
B5: TPP-27163 (antibody, V domains shown)
VH: EVQLLESGGGLVQPGGSLRLSCAASGFTFSSYGMHWVRQAPGKGLEWVAVISYDGSYKYYADSVKGRFTISRDNSKNTLYLQMNSLRAEDTAVYYCAAGVPDYWGQGTLVTVSS
VL: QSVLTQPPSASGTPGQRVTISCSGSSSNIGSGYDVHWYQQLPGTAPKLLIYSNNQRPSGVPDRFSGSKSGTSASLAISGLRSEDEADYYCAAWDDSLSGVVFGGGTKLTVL
B6: TPP-27159 (antibody, human IgG1, lambda, V domains shown)
VH: EVQLLESGGGLVQPGGSLRLSCAASGFTFSSYGMHWVRQAPGKGLEWVAVISYDGSYKYYADSVKGRFTISRDNSKNTLYLQMNSLRAEDTAVYYCAAGVPDYWGQGTLVTVSS
VL: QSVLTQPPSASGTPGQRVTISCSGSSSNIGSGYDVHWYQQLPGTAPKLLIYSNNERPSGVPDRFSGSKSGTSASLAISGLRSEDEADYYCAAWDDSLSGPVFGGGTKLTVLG
notes: hIgG1, Lambda
B7: TPP-23552 (antibody, human IgG1, kappa)
heavy: not shown
light: DIVLTQSPASLALSPGERATLSCRASKSVSTSGYSYIHWYQQKPGQPPRLLIYLASNLDSGVPARFSGSGSGTDFTLNIHPLEEEDFATYYCQHSRDLPPTFGQGTKLEIKRTVAAPSVFIFPPSDEQLKSGTASVVCLLNNFYPREAKVQWKVDNALQSGNSQESVTEQDSKDSTYSLSSTLTLSKADYEKHKVYACEVTHQGLSSPVTKSFNRGEC
notes: hIgG1, Kappa; also called BSN 3C6 (WO2019238882)
B8: TPP-31286 (antibody, IgG4, V domains shown)
VH: QVQLLESGGGLVQPGGSLRLSCAASGFTFSHYDMNWLRQAPGKGLEWVGVISYDGSNKFYADFVKGRFTISRDNSKNTLYLQMNSLRAEDTAVYYCARTPGSHFDYWGQGTLVTVSS
VL: QSVLTQPPSASGTPGQRVTISCSGSSSNIGNNAVNWYQQLPGTAPKLLIYYDDLLPSGVPDRFSGSKSGTSASLAISGLRSEDEADYYCSAWDDSLNGVVFGGGTKLTVL
B9: TPP-31287 (antibody, IgG4, V domains shown)
VH: EVQLVESGGGLVQPGGSLRLSCAASGFTFSHYDMNWLRQAPGKGLEWVGVISYDGSNKFYADFVKGRFTISRDNSKNTLYLQMNSLRAEDTAVYYCARTPGSHFDYWGQGTLVTVSS
VL: QSVLTQPPSASGTPGQRVTISCSGSSSNIGNNAVNWYQQLPGTAPKLLIYYDDLLPSGVPDRFSGSKSGTSASLAISGLRSEDEADYYCSAWDDSLNGVVFGGGTKLTVL

What was measured:
human IL-11 [1] = target: T1, human IL-11; assay: cell-based or functional assay
murine IL-11 [2] = target: T2, murine IL-11; assay: cell-based or functional assay
human IL-11 [3] = target: T1, human IL-11; assay: SPR, antibody captured, IL-11 as analyte
Experimental: (§1) Antibodies were captured via anti-mouse Fc IgGs (“Mouse antibody capture kit, Order No. BR100383, Cytiva) covalently amine coupled to a Series S CM5 sensor chip (Cytiva). The amine coupling was carried out according to the manufacturer's instructions using 1-ethyl-3-(3-dimethylaminopropyl) carbodiimide hydrochloride (EDC), N-hydroxysuccinimide (NHS) and ethanolamine HCl, pH 8.5 (“Amine Coupling Kit” BR-1000-50, Cytiva.). Human IL-11 (Invigate, e.g., lot #C121021-19), and murine IL-11 (Invigate, e.g., lot #C210819-09) were used as analytes. […] Based on that experiment an IL-11 concentration range was chosen to optimally determine kinetics and affinity of anti-IL-11 antibodies in multicycle kinetics mode. The sensor surface was regenerated with glycine pH 1.7 after each antigen injection. Obtained sensorgrams were double referenced (subtraction of reference flow cell signal and buffer injection) and were fitted to a 1:1 Langmuir binding model to derive kinetic data using the Biacore T200 Evaluation software or the Biacore Insight software.
(§2) For the 2nd round of germlining, single reversions were then combined on DNA level, expressed and purified as described in Example 15, and tested by SPR as described in Example 16.

murine IL-11 [4] = target: T2, murine IL-11; assay: SPR, antibody captured, IL-11 as analyte
Experimental: as §1, §2

human IL-11 [5] = target: T3, human IL-11; assay: cell-based or functional assay; remark: listed apart in the source
murine IL-11 [6] = target: T4, murine IL-11; assay: cell-based or functional assay; remark: listed apart in the source
human IL-11 [7] = target: T3, human IL-11; assay: cell-based or functional assay; remark: listed apart in the source
murine IL-11 [8] = target: T4, murine IL-11; assay: cell-based or functional assay; remark: listed apart in the source
cynomolgus IL-11 = target: T5, cynomolgus IL-11; assay: cell-based or functional assay
rat IL-11 = target: T6, rat IL-11; assay: cell-based or functional assay
human IL-11 [9] = target: T3, human IL-11; assay: Tri-complex ELISA, hIL-11 + mIL-11Ra-Fc + hgp130-Fc, inhibition of complex formation
Experimental: In the Tri-complex ELISA format IL-11 antibodies are tested for their ability to inhibit the formation of a complex consisting of murine or human gp130-Fc fusion protein, with murine or human IL-11, and a murine IL11RA-Fc fusion protein. The assay format was adapted according to FIG. 18 (a, b), depending on whether murine or human IL-11 IgG antibodies were tested.
(§3) IgG converted antibodies were subjected to the experimental assay procedure described in Example 19 and IC50 [M], respectively efficacy (%) were calculated accordingly.

murine IL-11 [10] = target: T4, murine IL-11; assay: Tri-complex ELISA, mIL-11 + mIL-11Ra-Fc + mgp130-Fc, inhibition of complex formation
Experimental: In a first step, 25 μl of goat anti human IgG (Sigma, #12136), diluted 1:1000 in coating buffer (Candor, #121125) was coated on the plate at 4° C. overnight. Next day, the plate was washed one time with 50 μl PBST and then blocked with 50 μl SmartBlock (Candor, #113125) for one hour at room temperature (RT). […] After three additional washes of the coated and blocked microtiter plate with PBS-T, 25 μl of each mixture were added and the assay plate was incubated for one hour at room temperature. After three additional washes, anti-mouse-gp130 biotinylated antibody (R&D, #BAF468) or anti-human gp130 biotinylated antibody (R&D, #BAF228), both 1:1000 in 10% SmartBlock PBS-T, was added and incubated for 1 hour at RT. After three additional washes, a Streptavidin-Peroxidase conjugate (Sigma, #S5512) 1:1000 in SmartBlock PBS-T was added and incubated for one hour at room temperature. After a final three washes, AmplexRed (Fisher Scientific, A12222), 1/1000 in PBS, 0,003% H₂O₂, was added as substrate and incubated for 15 min at RT in the dark. Then, the fluorescence was measured with a plate reader at 535/595 nm. Signals from dose responses were used to calculate IC50 values using GraphPad Prism software. Efficacy was calculated as [(signal measured at lowest antibody concentration−signal measured at the highest antibody concentration)×100] divided by (signal measured at lowest antibody concentration−signal measured in the absence of antibody at an IL11 concentration of 8.2E-11 [M]).
as §3

human IL-11 [11] = target: T1, human IL-11; assay: cell-based or functional assay; remark: listed apart in the source
murine IL-11 [12] = target: T2, murine IL-11; assay: cell-based or functional assay; remark: listed apart in the source
human IL-11 [13] = target: T1, human IL-11; assay: cell-based or functional assay; remark: listed apart in the source
murine IL-11 [14] = target: T2, murine IL-11; assay: cell-based or functional assay; remark: listed apart in the source

Row | Binder | Efficacy (%), RGA (human IL-11 [1]) [%] | IC50, RGA (human IL-11 [1]) [nM] | Efficacy (%), RGA (murine IL-11 [2]) [%] | IC50, RGA (murine IL-11 [2]) [nM] | Kd (human IL-11 [3]) [nM] | Kd (murine IL-11 [4]) [nM] | further results
1 | B1 | 51.2 | 13 | 86.4 | 1.4 | 5.1 | 1.1 | 
2 | B2 | 55.8 | 20 | 89.9 | 1.4 | 5.9 | 0.4 | 
3 | B3 | -2.8 |  | 63.8 | 10 | 180 | 56 | 
4 | B4 | 36 | 91 | 77.6 | 3.3 | 7.4 | 3.2 | 
5 | B5 | 2.9 |  | 52.3 | 52 | 12 | 28 | 
6 | B6 | 43.2 | 19 | 82.4 | 1.9 | 5.4 | 1.1 | 
7 | B7 |  |  |  |  |  |  | Efficacy (%), Stat3 reporter gene assay (human IL-11 [5]): 87.9%; IC50, Stat3 reporter gene assay (human IL-11 [5]): 18 nM; Efficacy (%), Stat3 reporter gene assay (murine IL-11 [6]): 76%; IC50, Stat3 reporter gene assay (murine IL-11 [6]): 22 nM; Efficacy (%), Stat3 reporter gene assay (human IL-11 [7]): 76.7%; IC50, Stat3 reporter gene assay (human IL-11 [7]): 3.7 nM; Efficacy (%), Stat3 reporter gene assay (murine IL-11 [8]): 90.9%; IC50, Stat3 reporter gene assay (murine IL-11 [8]): 8.1 nM; Efficacy (%), Stat3 reporter gene assay (cynomolgus IL-11): 52.4%; Efficacy (%), Stat3 reporter gene assay (rat IL-11): 81.3%; IC50, Stat3 reporter gene assay (rat IL-11): 8.8 nM; Efficacy (%) (human IL-11 [9]): 90.6%; IC50 (human IL-11 [9]): 6.8 nM; Efficacy (%) (murine IL-11 [10]): 90.7%; IC50 (murine IL-11 [10]): 23 nM
8 | B8 |  |  |  |  |  |  | RGA potency (mean) (human IL-11 [11]): < 170 nM; RGA potency (mean) (murine IL-11 [12]): < 170 nM; IC50, RGA 1 (human IL-11 [13]): 59 nM; IC50, RGA 2 (human IL-11 [13]): 37 nM; IC50, RGA 1 (murine IL-11 [14]): 18 nM; IC50, RGA 2 (murine IL-11 [14]): 13 nM
9 | B9 |  |  |  |  |  |  | RGA potency (mean) (human IL-11 [11]): < 170 nM; RGA potency (mean) (murine IL-11 [12]): < 170 nM; IC50, RGA 1 (human IL-11 [13]): 127 nM; IC50, RGA 2 (human IL-11 [13]): 56 nM; IC50, RGA 1 (murine IL-11 [14]): 41 nM; IC50, RGA 2 (murine IL-11 [14]): 15 nM
